Results as given in the DeepSol protein solubility set.

Experiment: soluble on expression in E. coli; label from the status in PepcDB or PDB records

Row | Sequence | soluble on expression in E. coli
1 | MFCSFFHEKKKNILRLNIRCQRLREHDNTAKIELFKSMRRRRSSTKASRKTTMGGAAELEDEWIPSETMSGAGWKARGDRKPKDKRVPFNRPTPYQIYEALPFVRRYFMYWMKHTFDKEKLFINTFQPLKHKPYYGVPCGGIGCGAIGRDFRGGFCKFSLRPGLVEHKVDVVAADQFILSVRENDRCIYQKVLSAADVQRPSGQLSTWDFKFPKKNVHYRGLFPRSWTTFRVPELELTVVIRQVSPVLPHNYEDTTYPVCLFLIDVENGGSASREYEISVAFTFRNGTGNRRWEREAECSGVKFETEEEGLKPTTTAQEKISGVSLYHTISSMPCTYGLATTHREHTTTTVCERFDPSRNGAALWNHLKQTGDVPSCEEECLINAREMAVAVCNRFTLPPNSTKTHDYALSWDMPKVHFGSVARSYHRRYTRFFEASEAGSAADSLCVRALRLKDKWESEIEAWQSPILNHKKLPDWYKSAIFNELYFITDGGTVWFEFDENWAEHETHLSHYTKDKMKEIGRFGYLESWEYRMVNTYDVHFYASFALAELWPELEITIQSEFTDQVYHSIEKPTRFHMEGDWANVKTASRVPHDLGNPADEPWIATNAYVMHDTGKWKDLNMKYVLTSWRDYVVLSNEHEDFLFHTWPAVRMIMLEALENWDQDGDGMIENFGKADQTYDAWQMEGVSAYCGSLWLASLRVAIEMAGLMKDDETQQLFRNTLEKAKKVFIDTLWTGTYFRFCERSRSRETVMADQLCGYWFLQSVSPELADELLPNHMVRSALDTIYRLNVCKFGNGRMGAVNGMKPSGVVDREYIQADEMWTGVTYAVASLLIQQGEVEKAFHTASGSYLTCFEETGLQYQTPEALYESKFYRAIGYMRPLSIWAMQWSLKKHCGMNTSEEKLPNLVKNEKVVPESEAAIQVQKQRILGDTSEDGSSLGYVSDYHDERSIPKIATLR | not soluble
2 | MGSDKIHHHHHHMALLEVTDLSQSFADRKLYDDANFTLERADHMGIVGQNGAGKSTLIKILTGQILPLSGQIKWQRNVRTGYLDQYADIPAGMTLYAFLKTAFQRLYDLDAQMQQLYADYAEKMDDQLLERAGRIQETLEANNFYDVETEMERVITGLGLDEIGRDHVISEMSGGQRSKIILAKLLLENPDVIILDEPTNYLDTAHISWLEDYLNGFEGAVMVISHDYDFLQQVTNCICDVAFGKIIKYRGDFKAAMRQKEARKEAQLKAFEKQQVVIEKAEKFIRKNKAGSKSTMAKSREKMLSHLDRVDPPSENEHAKFAFPYLDTGSQNALSVTKLSVGYGKPLLEPVTFTMTNGEKLAFKGFNGVGKSTLIKSILGVIPALSGKSDFSPSAKINYFNQDLEWDNPQLTPLQTIQNEYPTMLPKTIRTKLAKCGINAANAMKPMHLLSGGEQTKVKLALLELVPSNFLIMDEPTNHLDDETKEGLKRALQAFQGNLILVSHESSFVNGWVDKELNVEKLSLKERQG | not soluble
3 | MAGTTTYELIDYLEGKDILVVSNGLSHIDTLIQKNIKCYVIGGNIKISTKAITGCDALMCLSKFRFDKCFIGANGVHHTYGLTTPDTEEAILKECAINNSRKAYVLADDSKFGEISTIKFSDINKCVIITNEKPKDNTYDKKTDIKVVDILEHHHHHH | not soluble
4 | MGSDKIHHHHHHMTYYESGLLRARWASWQDARAGRTAQANARWGWIKAPGERGPILWMQSFSDADQQRLGIELAKAMAEKRRDLRMVMTFETEYPALLEQHTEGAERLGYGFGPCDHPQAVGRMLERLTPLRYLALGRAPRPRLAAALGRRKIPAVLMAADPGLQIPAPLEAVYPRDARQAGAWAGRGVTEAVQEPVDFATLFTIAQVDPNFRAMISGTDEGLLWWAQGLSAAQWAGWRRAWAASPLSRHGLLFLGGTGAPTDLPRLSAWQRAPLPAGAVVVADDDRWYPALSAGAQAVHLQKASPMLQWQVYAGSRPISVSPGVTLNAAEPLDADTILTLEEPAQILDHWQALRGDAMAARQRGDATRRIFWQERRHAGERLPEFLQRVFDW | not soluble
5 | RLQSRILAGLLHTVVRYRRKVVRDNLTRCFPEKSLQEIRRIERRFYYNFTYQILSSFKLLTYSQAQLRRHISFENLDVLIRLRAEGHPAILLMMGHFGNWEYFSGSQAIIKDLGLQIYQIFRPLKSTSSDRLMHRIRERFGSRGIAKHDVPRELLRLVRNPIPTETP | not soluble
6 | MGSDKIHHHHHHMIRVIDCTLREGCQARQCSFDSAQSVQLAREIAALGVDMIECGHPRISADERERVRAVVAAVSTPVLAHARARREDIDAVLETGAQWVGLFASINAISLETKFKGMNREEVLELFHDAIRYARERGLRVRATVEDAARTSVSDLVSMIATARDAGADRICFADSVGILLPDETFDVLSLLRHEFPDVVFEYHVHNDRGLALGNTLAAIQAGVQWHSASCNGIGERAGITDTFQLLTLLHTKFAADRFNLKNVLAVSELVEAHSRIKRSPMHPVVGENAFVHVARLHQLAMQENQDAYSAFDPELINGRVSLQRYTPMHRQSLFLTPFEKSASELKYHRHGPGKRFVMLDRRLLDGSPFYFIARQFHDVGDGGPGHVDSHVHNCDSVFLFLGSDEDYRGLEVEVLLGGQLRRLQSPASVFIPAGVEHSYRYLGGSGTYINFVHKGDYHESLLEITQ | not soluble
7 | MVFDTHLHTLFSTDSKMNIEEAIDAGEKKNLGIIITEHIDLNYPVKGEFVFDIDKYFKEYNKYRSNKVLLGVEIGMGEEIKEQNKSINDKYEFDYVLGSIHLLNGLDLYEKTIYKSSPKKEVFEMYFKTMLACLRCHEYIDSLAHIDYISRYAAYHDGEIYYNEYSDYIDEVLKFIVDREIVIEINTRRLNKKEVCENLMPIYKRYSELGGRFVTIGSDSHYKDSIGLNFKNALKMAENCNLKPVFFEKRLMKYA | not soluble
8 | MFDRLKNGEKIAPIVKEVESQITEVHKRADEVIESNQFRVLESFGKHKISDSHFIPTTGYGYDDIGRDTLEKVYADVFGAEAGLVRPQIISGTHAISTALFGILRPGDELLYITGKPYDTLEEIVGVRGKGVGSFKEYNIGYNAVPLTEGGLVDFEAVAAAIHSNTKMIGIQRSKGYATRPSFTISQIKEMIAFVKEIKPDVVVFVDNCYGEFIEEQEPCHVGADLMAGSLIKNPGGGIVKTGGYIVGKEQYVEACAYRLTSPGIGAEAGASLYSLQEMYQGFFLAPHVAGQALKGAIFTAAFLEKLGMNTSPAWNAPRTDLIQSVQFDDKDRMIAFCQAIQYASPINSHFTPYANYMPGYEDDVIMAAGTFIQGASIELSADGPIRPPYVAYVQGGLTYSHVKIAICSAIDELIEKNLLTISLEHHHHHH | soluble
9 | MAQSLPPGDIDFQPRKIVFNAPYNEKQVFQIKLINTSALRIAFGINTYMRKLRVDTLCTPRCGVLDPNEHILLAVSCSAFAFGQVDTTNDRITVEWTNTPEGSDKQFCREWLEGEGMVRRKIILIEYNSTPIAPKPTTSSKPLLQATKLGMWLPIGFAASELYDYEKGVPLDRETCEKNLEKLIKNDRDVDYYEWLNLAQQCRTENHKLMEQMALGMAFTSAMANKQHKKVSRKADKDKITGAIVQNKMFSIETAEIWDRVLTLPNRKWFQISDVVTDGEVSNWSSANLVTHVRALARSVFDKVDEADPHMMCYATSQNACIYVPIDKDFFDGFAEYLIGGFGQEQSRDLKLQVRKLVTEVMGNKLNRVRARYNKMYGKDASEEAAKWMREELDKKDGELKECQLIFSKGSKSSYAIEVHGEEEEDLVKSEVLSGDEDVEME | not soluble
10 | MGSDKIHHHHHHMHIAIMSRNKNLYSTSRLKEAAEARGHVIKIVDPLKCYMNINMNAPSIHVRGEELPKFDAVIPRIGASVTFYGTAVLRQFEMMGTHPLNESVAITRSRDKLRSLQLLSRKNIGLPVTGFASKPADIPDLLDMVGGAPCVIKLLEGTQGIGVVLAETRKAAESVIEAFMGLKANIMVQEYIAEAGGADIRCFVIGDKVIAAMKRQALPGEFRSNLHRGGSASIVKLTPEERSTALRAAKTMGLNVAGVDILRSKHGPLVMEVNSSPGLEGIEKATGIDVAEKIIQFIEKNVKSTSSKTKGVG | not soluble
11 | MPAALLISGPCKICDLPAHGNHFGVLSCRACAAFFRRASRSPRFQDKACEYGDCRIFDAGAYRCKICRLKKCYKVGMDASKFQKDRDLISSSNAYLKRTKVYAPQSLANFLGRPEFIISFEPEKASPFKTVIDVTDLVHKAAEIFQEDLANSPMPYKYSNSLEKLTLEMEDLRLRSSNHKVKIVRNIGKAESLVFFEQMFLATANWYARLPDFTSLDLRVKLEILKSTWMLWIRLNKLAETAQNQRIKEMGANIFMCSENTCLNVQDINVDWSWCTNYGAEQMQAFLMPNIDKHWRQPVEDLVKLNPTDMELNFMLIQLCLNDAGKKFQGRVLEATDKLLQINADNLHNYYTKKLNMPSYSGRLTKLMKINQIVEEDVRERKEKAKIVEVFDLFSIVYSHPEMFEGT | not soluble
12 | MSLMESWLIPAAPVTVVEEIKKSRFITMLAHTDGVEAAKAFVESVRAEHPDARHHCVAWVAGAPDDSQQLGFSDDGEPAGTAGKPMLAQLMGSGVGEITAVVVRYYGGILLGTGGLVKAYGGGVNQALRQLTTQRKTPLTEYTLQCEYHQLTGIEALLGQCDGKIINSDYQAFVLLRVALPAAKVAEFSAKLADFSRGSLQLLAIEEEGGSHHHHHH | soluble
13 | MSLAMEHVDVLIVGAGLSGIGAAYHLQKHCPGKTYAILEGREAIGGTWDLFRYPGIRSDSDMYTLGYSFKPWKAAKAIADGPSILDYVRETAREHDIDRHIRFQHLVKRASWSSETATWTVEAEHDGKPVTLTCRFLHMCSGYYRYSAGYTPDFAGTERFKGRIVHPQHWPEDLDYSGKKVVVIGSGATAVTLVPEMAKTAAHVTMLQRSPTYVVSRPAEDGIANWLRSKLPAMTAYGITRWKNVLFQLFFFNLARKKPEKVKERLLGMVRDHLGPGYDVETHFTPRYNPWDQRLCLVPDADLFDAIKSGAASVVTDHIETFTETGIQLKSGKTLDADVIVTATGLQLQLLSGMEVVVDGKVADLSQSMSYKGMMFSDVPNLASVFGYTNASWTLKADLTSEYVCRLLNHMDRTGADYCVPRLDGEVEAAPWLDFSSGYITRSIGHFPKQGTRKPWKVHQNYALDLMTLRMGKVEDGVMQFGRKTGATAKAKPEKALEPAEGHHHHHH | soluble
14 | MSLNAQTKSLHQLQQEFVDLRCGMFIHFNMPTFFNEDWPDPDAAPELFNPVRMDCKQWAKAAKSANMTYGCLTTKHHSGFCIWDTKTTDYSVMSSPFKRDVVKEYADAFRAEGMKVMLYYSILDTHARLRPKCITPQHIEMIKEQLRELLTNYGEITALIIDGWDAPWSRISYDDVPFEDIYRLVKSIQPNCLVMDLNAAKYPAEALFYTDIKSYEQGAGQHISKDTNRLPALSCLPLQQNWFWKESFPTTPVKSPAQMVNDNIIPMGKSYCNFILNVAPNRDGLMDANALKALKEIGKLWKNDGRVATVPEADAPIISSNIAKYQPAEGTWSSDYAIMDFANDDDFGTCWNSNPEVKVPWYSVTFEREKSFNMVVITDRNNDRLQEYRLEYRAGGTWKPLYEGKAPTGLRVKIHRFDTVWGDAVRMTVLNSNGTTSIAEFGVYCEREGHHHHHH | soluble
15 | MKKMGGKIFAVRVTQGQEENTARLIYSKVKTYNLPIYAILAPSKVKGYIFIEAPEKSVVDEAIRGIRHARGVLPGEIPFSEIEHFLEEKPAVSGLEPGDIVELISGPFKGEKAKVVRVDESKDEIVVELIGAIVPIPVTVRGEYVRLISKRQKEE | soluble
